Values joined by “and” are separate entries in the source; they are usually repeats but may differ in a detail not shown here. Equal values may be shown once.
Key:
[1] = molecular target: M2 protein of influenza A/Hong Kong/483/97 (H5N1) (influenza A virus A/Hong Kong/483/97 (H5N1)); note: test concentration or dose not given here
[2] = molecular target: Hemagglutinin of influenza A/Solomon Islands/3/06 (H1N1) on whole virions (Influenza A virus A/Solomon Islands/3/2006(H1N1)); note: test concentration or dose not given here
[3] = molecular target: Hemagglutinin of influenza A/Wisconsin/67/05 (H3N2) on whole virions (Influenza A virus A/Wisconsin/67/2005(H3N2)); note: test concentration or dose not given here
[4] = molecular target: hemagglutinin (HA) of live influenza A/California/4/09 (H1N1) virus (influenza A virus A/California/04/2009 (H1N1)); experiment: cell-based or functional assay
[5] = molecular target: hemagglutinin (HA) of live influenza A/Solomon Islands/3/06 (H1N1) virus (influenza A virus A/Solomon Islands/3/2006 (H1N1)); experiment: cell-based or functional assay
[6] = molecular target: hemagglutinin (HA) of live influenza A/Wisconsin/67/05 (H3N2) virus (influenza A virus A/Wisconsin/67/2005 (H3N2)); experiment: cell-based or functional assay
[7] = molecular target: recombinant soluble homotrimeric HA of A/Anhui/1/05 (H5N1) (Influenza A virus A/Anhui/1/2005 (H5N1)); experiment: HA microarray, control mAb
[8] = molecular target: recombinant soluble homotrimeric HA of A/California/4/09 (H1N1) (Influenza A virus A/California/04/2009 (H1N1)); experiment: HA microarray, control mAb
[9] = molecular target: recombinant soluble homotrimeric HA of A/Egypt/3300-NAMRU3/08 (H5N1) (Influenza A virus A/Egypt/3300-NAMRU3/2008 (H5N1)); experiment: HA microarray, control mAb
[10] = molecular target: recombinant soluble homotrimeric HA of A/Hong Kong/2108/03 (H9N2) (Influenza A virus A/Hong Kong/2108/2003 (H9N2)); experiment: HA microarray, control mAb
[11] = molecular target: recombinant soluble homotrimeric HA of A/Indonesia/5/05 (H5N1) (Influenza A virus A/Indonesia/5/2005 (H5N1)); experiment: HA microarray, control mAb
[12] = molecular target: recombinant soluble homotrimeric HA of A/Japan/305/57 (H2N2) (Influenza A virus A/Japan/305/1957 (H2N2)); experiment: HA microarray, control mAb
[13] = molecular target: recombinant soluble homotrimeric HA of A/Netherlands/219/03 (H7N7) (Influenza A virus A/Netherlands/219/03 (H7N7)); experiment: HA microarray, control mAb
[14] = molecular target: recombinant soluble homotrimeric HA of A/Solomon Islands/3/06 (H1N1) (Influenza A virus A/Solomon Islands/3/2006 (H1N1)); experiment: HA microarray, control mAb
[15] = molecular target: recombinant soluble homotrimeric HA of A/Vietnam/1203/04 (H5N1) (Influenza A virus A/Vietnam/1203/2004 (H5N1)); experiment: HA microarray, control mAb
[16] = molecular target: recombinant soluble homotrimeric HA of A/Wisconsin/67/05 (H3N2) (Influenza A virus A/Wisconsin/67/2005 (H3N2)); experiment: HA microarray, control mAb
[17] = molecular target: recombinant soluble homotrimeric HA of A/chicken/Vietnam/NCVD-016/08 (H5N1) (Influenza A virus A/chicken/Vietnam/NCVD-016/2008 (H5N1)); experiment: HA microarray, control mAb
[18] = molecular target: recombinant soluble homotrimeric HA of A/duck/Yangzhou/02/2005 (H8N4) (Influenza A virus A/duck/Yangzhou/02/2005 (H8N4)); experiment: HA microarray, control mAb
[19] = molecular target: recombinant soluble homotrimeric HA of A/northern shoveler/California/HKWF115/2007 (H6N1) (Influenza A virus A/northern shoveler/California/HKWF115/2007 (H6N1)); experiment: HA microarray, control mAb
[20] = molecular target: recombinant soluble homotrimeric HA of A/swine/Ontario/01911-2/99 (H4N6) (Influenza A virus A/Swine/Ontario/01911-2/99 (H4N6)); experiment: HA microarray, control mAb
[21] = molecular target: recombinant soluble homotrimeric HA, A/Hong Kong/1073/99 (H9N2) (influenza A virus A/Hong Kong/1073/99 (H9N2)); experiment: microarray, trimeric HA, transfection supernatant
[22] = molecular target: recombinant soluble homotrimeric HA, A/Hong Kong/156/97 (H5N1) (influenza A virus A/Hong Kong/156/97 (H5N1)); experiment: microarray, trimeric HA, transfection supernatant
[23] = molecular target: recombinant soluble homotrimeric HA, A/Hong Kong/2108/03 (H9N2) (influenza A virus A/Hong Kong/2108/2003 (H9N2)); experiment: microarray, trimeric HA, transfection supernatant
[24] = molecular target: recombinant homotrimeric HA, A/California/4/09 H1N1 (Influenza A virus A/California/4/09 (H1N1)); experiment: trimeric HA microarray; transfection supernatant set 5
[25] = molecular target: recombinant homotrimeric HA, A/Egypt/3300-NAMRU3/08 H5N1 (Influenza A virus A/Egypt/3300-NAMRU3/08 (H5N1)); experiment: as above
[26] = molecular target: recombinant homotrimeric HA, A/Indonesia/5/05 H5N1 (Influenza A virus A/Indonesia/5/05 (H5N1)); experiment: as above
[27] = molecular target: recombinant homotrimeric HA, A/Japan/305/57 H2N2 (Influenza A virus A/Japan/305/57 (H2N2)); experiment: as above
[28] = molecular target: recombinant homotrimeric HA, A/Solomon Islands/3/06 H1N1 (Influenza A virus A/Solomon Islands/3/06 (H1N1)); experiment: as above
[29] = molecular target: recombinant homotrimeric HA, A/South Carolina/1/18 H1N1 (Influenza A virus A/South Carolina/1/18 (H1N1)); experiment: as above
[30] = molecular target: recombinant homotrimeric HA, A/Vietnam/1203/04 H5N1 (Influenza A virus A/Vietnam/1203/04 (H5N1)); experiment: as above
[31] = molecular target: recombinant homotrimeric HA, A/Wisconsin/67/05 H3N2 (Influenza A virus A/Wisconsin/67/05 (H3N2)); experiment: as above
[32] = molecular target: recombinant homotrimeric HA, A/swine/Ontario/01911-2/99 H4N6 (Influenza A virus A/swine/Ontario/01911-2/99 (H4N6)); experiment: as above
[33] = molecular target: M2 protein of influenza A/Puerto Rico/8/34 (H1N1), on virus particles (influenza A virus A/Puerto Rico/8/34 (H1N1)) (UniProt P06821)
Throughout, for Virus ELISA OD A450: test concentration or dose not given here.

TCN-032 (8I10) (antibody), sequence (VH): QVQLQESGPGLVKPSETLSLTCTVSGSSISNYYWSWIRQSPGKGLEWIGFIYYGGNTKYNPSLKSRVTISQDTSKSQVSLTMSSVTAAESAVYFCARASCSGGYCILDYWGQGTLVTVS
TCN-032 (8I10) (antibody), sequence (VL): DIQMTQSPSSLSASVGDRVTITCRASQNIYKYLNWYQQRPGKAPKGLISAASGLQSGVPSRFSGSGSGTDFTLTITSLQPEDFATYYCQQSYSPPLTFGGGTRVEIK

TCN-032 (8I10) (antibody)
FACS M2-HK MFI [1]: 754 MFI and 1080 MFI

TCN-202 (2N9) (antibody)
OD450 [2]: 0.07 OD450 and 0.08 OD450 and 0.1 OD450 | OD450 [3]: 0.07 OD450 and 0.08 OD450 | % Neutralization [4]: 0% | % Neutralization [5]: 0% and 7% | % Neutralization [6]: 17.8% and 0% | Trimeric HA Binding RLU [7]: 25 RLU | Trimeric HA Binding RLU [8]: 39 RLU | Trimeric HA Binding RLU [9]: 1280 RLU | Trimeric HA Binding RLU [10]: 50 RLU | Trimeric HA Binding RLU [11]: 24 RLU | Trimeric HA Binding RLU [12]: 85 RLU | Trimeric HA Binding RLU [13]: 348 RLU | Trimeric HA Binding RLU [14]: 46 RLU | Trimeric HA Binding RLU [15]: 53 RLU | Trimeric HA Binding RLU [16]: 252 RLU | Trimeric HA Binding RLU [17]: 69 RLU | Trimeric HA Binding RLU [18]: 196 RLU | Trimeric HA Binding RLU [19]: 105 RLU | Trimeric HA Binding RLU [20]: 75 RLU | Trimeric HA Binding RLU [21]: 57 RLU and 81 RLU | Trimeric HA Binding RLU [22]: 945 RLU | Trimeric HA Binding RLU [23]: 30 RLU and 22 RLU | Trimeric HA Binding: RLU [24]: 733 RLU | Trimeric HA Binding: RLU [25]: 13900 RLU | Trimeric HA Binding: RLU [26]: 1970 RLU | Trimeric HA Binding: RLU [27]: 1880 RLU | Trimeric HA Binding: RLU [28]: 525 RLU | Trimeric HA Binding: RLU [29]: 5330 RLU | Trimeric HA Binding: RLU [30]: 30000 RLU | Trimeric HA Binding: RLU [31]: 581 RLU | Trimeric HA Binding: RLU [32]: 2690 RLU

mAb 2N9 (antibody)
FACS M2-HK MFI [1]: 11 MFI and 6 MFI | Virus ELISA OD A450 [33]: 0.15 OD A450 and 0.05 OD A450

Source: patent publication US20150104459A1
